# US9988424 (DUKE UNIVERSITY, dated 2018)
# Like-named read-outs stand apart in the source and are kept apart here.
# T1: SIV CPZ US-1 gp140CF (SIVcpz)
# T1 construct: also called US-1 SIVCPZ gp140CF
# T1 chain: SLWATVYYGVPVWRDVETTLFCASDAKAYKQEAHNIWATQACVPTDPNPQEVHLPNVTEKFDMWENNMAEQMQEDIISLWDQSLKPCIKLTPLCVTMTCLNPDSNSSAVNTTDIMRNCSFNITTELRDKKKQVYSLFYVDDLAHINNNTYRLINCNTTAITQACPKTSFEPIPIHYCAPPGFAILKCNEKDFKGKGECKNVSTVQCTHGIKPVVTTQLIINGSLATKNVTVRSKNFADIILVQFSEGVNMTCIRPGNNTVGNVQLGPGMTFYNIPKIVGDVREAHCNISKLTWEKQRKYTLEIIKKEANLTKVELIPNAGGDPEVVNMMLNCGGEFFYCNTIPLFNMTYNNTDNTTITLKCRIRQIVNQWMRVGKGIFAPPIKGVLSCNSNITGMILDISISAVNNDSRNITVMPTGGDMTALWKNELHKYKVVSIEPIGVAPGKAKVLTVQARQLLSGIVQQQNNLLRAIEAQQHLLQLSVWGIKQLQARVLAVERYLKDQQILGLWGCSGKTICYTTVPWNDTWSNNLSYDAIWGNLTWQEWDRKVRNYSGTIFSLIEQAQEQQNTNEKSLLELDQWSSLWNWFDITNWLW
# T2: B.63521_V1V2 Tags
# T2 Env construct: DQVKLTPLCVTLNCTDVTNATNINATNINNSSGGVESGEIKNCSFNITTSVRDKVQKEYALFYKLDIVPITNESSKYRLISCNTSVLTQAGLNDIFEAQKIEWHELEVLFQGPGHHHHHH
# B1: CH58 reverted unmutated ancestor antibody (antibody, V domains shown)
# VH: EVQLVQSGAEVKKPGESLKISCKGSGYSFTSYWIGWVRQMPGKGLEWMGIIYPGDSDTRYSPSFQGQVTISADKSISTAYLQWSSLKASDTAMYYCARLGGRYYYDSSGYYYFDYWGQGTLVTVSS
# VL: NFMLTQPHSVSESPGKTVTISCTRSSGSIASNYVQWYQQRPGSSPTTVIYEDNQRPSGVPDRFSGSIDSSSNSASLTISGLKTEDEADYYCQSYDSSSWVFGGGTKLTVL
# notes: also called CH58 RUA; CH58_RUA
# B2: CH59 (antibody, V domains shown)
# VH: EVQLVESGGGLVQPGRSLRLSCAASGFTFDDGAMHWVRQAPGKGLEWVSGISWNSNIIAYADSVKGRFTISRDNAKNSLYLEMNSLRVEDTALYYCAKDSPRGELPLNYWGQGTLVTVSS
# VL: SYELTQPPSVSVSPGQTARITCSGDALPKNYAYWYQQKSGQAPVLVIYEDSKRPSGIPERFSGSSSGTMATLTISGAQVEDEADYYCYSTDSSGNHRVFGGGTKLTVL
# notes: also called mAb CH59
# Columns and labels:
# [1] = target: T3, B.62357 140C; test: ELISA, OD405
# T3 construct: also called B.62357 gp140C
# [2] = target: B.63521 gp140C; test: ELISA, OD405
# [3] = target: T4, C.1086 gp140; test: ELISA, OD405
# T4 construct: also called C.1086gp140C
# [4] = target: C.CAP206 gp140CF.12 (HIV-1); test: ELISA, OD405
# [5] = target: T5, G.con gp140CF; test: ELISA, OD405
# T5 construct: also called G.con.env03 gp140CF
# [6] = target: Con 6 gp120; test: ELISA, OD405
# [7] = target: B.040 gp140C; test: ELISA, OD405
# [8] = target: B. 681-7 gp140C; test: ELISA, OD405
# [9] = target: T6, B.con gp140CF; test: ELISA, OD405
# T6 construct: also called B.con.env03 gp140CF
# [10] = target: T7, AE.con gp140CF; test: ELISA, OD405
# T7 construct: also called AE.con.env03 gp140CF
# [11] = target: T8, AE.97CNG2XF gp140CF (HIV-1); test: ELISA, OD405
# T8 construct: also called E.97CNGX2F gp140CF
# [12] = target: B.9021 gp140C (HIV-1); test: ELISA, OD405
# [13] = target: T9, B.HXB/BAL gp140CFI (HIV-1, UniProt P04578 33-680); test: ELISA, OD405
# T9 construct: also called B.HxB/Ba gp140 CFI
# [14] = target: B. 684-6 gp140C; test: ELISA, OD405
# [15] = target: AE.A244 V1V2 Tags (HIV-1)
# [16] = target: T3, B.62357 140C; test: ELISA, OD405; remark: listed apart in the source
# [17] = target: B.63521 gp140C; test: ELISA, OD405; remark: listed apart in the source
# [18] = target: T5, G.con gp140CF; test: ELISA, OD405; remark: listed apart in the source
# [19] = target: Con 6 gp120; test: ELISA, OD405; remark: listed apart in the source
# [20] = target: B.040 gp140C; test: ELISA, OD405; remark: listed apart in the source
# [21] = target: B. 681-7 gp140C; test: ELISA, OD405; remark: listed apart in the source
# [22] = target: T1, SIV CPZ US-1 gp140CF; test: ELISA, OD405
# [23] = target: T2, B.63521_V1V2 Tags; test: ELISA, OD405
# [24] = target: T9, B.HXB/BAL gp140CFI; test: ELISA, OD405; remark: listed apart in the source
# [25] = target: B. 684-6 gp140C; test: ELISA, OD405; remark: listed apart in the source
# [26] = target: Env of SHIV-1157ipEL-p (SHIV); test: cell-based or functional assay
# [27] = target: Env of SHIV SF162P3 (SHIV); test: cell-based or functional assay
# [28] = target: Env of SHIV-BaL (SHIV); test: cell-based or functional assay
# [29] = target: Env of SHIV-SF162P4 (SHIV); test: cell-based or functional assay
# [30] = target: Env of SHIV-1157ipd3N4 (SHIV); test: cell-based or functional assay
# [31] = target: Env of SHIV-1157ipEL-p (SHIV); test: cell-based or functional assay; remark: listed apart in the source
# [32] = target: Env of SHIV SF162P3 (SHIV); test: cell-based or functional assay; remark: listed apart in the source
# [33] = target: Env of AE.92TH023 virus (HIV-1); test: cell-based or functional assay
# [34] = target: Env of AE.CM244 virus (HIV-1); test: cell-based or functional assay
binder,measurement,setting,value
B1,binding result,[1],no binding (tested: 10 ug/ml)
same,binding result,[2],no binding (tested: 10 ug/ml)
same,binding result,[3],no binding (tested: 10 ug/ml)
same,binding result,[4],no binding (tested: 10 ug/ml)
same,binding result,[5],no binding (tested: 10 ug/ml)
same,binding result,[6],no binding (tested: 10 ug/ml)
same,binding result,[7],no binding (tested: 10 ug/ml)
same,binding result,[8],no binding (tested: 10 ug/ml)
same,binding result,[9],no binding (tested: 10 ug/ml)
same,binding result,[10],no binding (tested: 10 ug/ml)
same,binding result,[11],no binding (tested: 10 ug/ml)
same,binding result,[12],no binding (tested: 10 ug/ml)
same,binding result,[13],no binding (tested: 10 ug/ml)
same,binding result,[14],no binding (tested: 10 ug/ml)
B2,Kd,[15],0.48 nM
same,koff,[15],0.00011 s⁻¹
same,kon,[15],238000 M⁻¹ s⁻¹
same,binding result,[16],no binding (tested: 10 ug/ml)
same,binding result,[17],no binding (tested: 10 ug/ml)
same,binding result,[18],no binding (tested: 10 ug/ml)
same,binding result,[19],no binding (tested: 10 ug/ml)
same,binding result,[20],no binding (tested: 10 ug/ml)
same,binding result,[21],no binding (tested: 10 ug/ml)
same,binding result,[22],no binding (tested: 10 ug/ml)
same,binding result,[23],no binding (tested: 10 ug/ml)
same,binding result,[24],no binding (tested: 10 ug/ml)
same,binding result,[25],no binding (tested: 10 ug/ml)
same,"EC50, neutralization of SHIV C.1157ipEL-p (tier 1A)",[26],24.6 µg/mL
same,"EC50, neutralization of SHIV B.SF162P3 (tier 2)",[27],> 50 µg/mL
same,"EC50, neutralization of SHIV B.BaL (tier 2)",[28],> 50 µg/mL
same,"EC50, neutralization of SHIV B.SF162P4 (tier 2)",[29],> 50 µg/mL
same,"EC50, neutralization of SHIVC.1157ipd3N4 (tier 2)",[30],> 50 µg/mL
same,"EC50, neutralization of SHIV-1157ipEL-p",[31],24.6 µg/mL
same,"EC50, neutralization of SHIV SF162P3",[32],> 50 µg/mL
same,"EC50, neutralization of AE.TH023",[33],12.1 µg/mL
same,"EC50, neutralization of AE.CM244",[34],> 50 µg/mL
